Results on 53 variants are retold here after the MegaScale stability set (Tsuboyama et al. 2023).

B1: r11_951_TrROS_Hall (parent)
chain: KKKYVIKVYFEDTGKEVEIEAESKEEALEAAKRLAEELGLKIKKVEIYP

In this series the parent is B1. As to the kind of experiment: folding stability dG (cDNA display proteolysis); higher = more stable. Particulars: PBS, room temperature.
Take KGKYVIKVYFEDTGKEVEIEAESKEEALEAAKRLAEELGLKIKKVEIYP [K2G]: the “folding stability dG” value amounted to 4.29 kcal/mol.
KPKYVIKVYFEDTGKEVEIEAESKEEALEAAKRLAEELGLKIKKVEIYP [K2P]: the “folding stability dG” value turned out to be 3.73 kcal/mol.
For YKKYVIKVYFEDTGKEVEIEAESKEEALEAAKRLAEELGLKIKKVEIYP [K1Y] the value was 4.52 kcal/mol.
Take MKKYVIKVYFEDTGKEVEIEAESKEEALEAAKRLAEELGLKIKKVEIYP [K1M]: the “folding stability dG” value is 4.8 kcal/mol.
Take NKKYVIKVYFEDTGKEVEIEAESKEEALEAAKRLAEELGLKIKKVEIYP [K1N]: the “folding stability dG” value was found to be 4.47 kcal/mol.
For KKKYVIKVYFEDTGKEVEIEAESKEEALEAAKRLAECLGLKIKKVEIYP [E37C] the value was 4.94 kcal/mol; for KKKYVIKVYFEDTGKEVEIEAESKEEALEAAKRLAEYLGLKIKKVEIYP [E37Y], 4.82 kcal/mol; for KKKYVIKVYFEDTGKEVEIEAESKEEALEAAKRLAELLGLKIKKVEIYP [E37L], 4.55 kcal/mol.
Regarding KKKYVIKVYFEDTGKEVEIEAEVKEEALEAAKRLAEELGLKIKKVEIYP [S23V], the “folding stability dG” value was 3.91 kcal/mol.
For KKKYVIKVYFEDTGCEVEIEAESKEEALEAAKRLAEELGLKIKKVEIYP [K15C], the “folding stability dG” value was 3.19 kcal/mol.
Take KKKYVIKVYFEDTGYEVEIEAESKEEALEAAKRLAEELGLKIKKVEIYP [K15Y]: the “folding stability dG” value came to 4.52 kcal/mol.
For KKKYVIKVYFEDTGREVEIEAESKEEALEAAKRLAEELGLKIKKVEIYP [K15R] the value was 4.19 kcal/mol.
In the case of KKKYVIKVYFEDTGGEVEIEAESKEEALEAAKRLAEELGLKIKKVEIYP [K15G], the “folding stability dG” value was determined as 4.19 kcal/mol.
For KKKYVIKVYFEDTGKEVEIEAESKEAALEAAKRLAEELGLKIKKVEIYP [E26A] the value was 4.66 kcal/mol; for KKKYVIKVYFEDTGKEVEIEAESKEFALEAAKRLAEELGLKIKKVEIYP [E26F], 4.83 kcal/mol.
For the variant KKKYVIKVYFEDTGKEVEIEAESKEEALEAAKRLAEELGLKIKVVEIYP [K44V], the “folding stability dG” value came out at 4.17 kcal/mol.
Take KKKYVIKVYFEDTGKEVEIEAESKEEALEAAKRLAEELGLKIKDVEIYP [K44D]: the “folding stability dG” value turned out to be 3.95 kcal/mol.
For KKKYVIKVYFEDTGKEVEIEAESKEEALEAAKRLAEELGLKIKFVEIYP [K44F] the value was 4.3 kcal/mol.
The result for KKKYVIKVYFEDTGKEVEIEAESKEEALEAAKRLAEELGSKIKKVEIYP [L40S] reads 3.9 kcal/mol; that for KKKYVIKVYFEDTGKEVEIEAESKEEALEAIKRLAEELGLKIKKVEIYP [A31I], 4.2 kcal/mol.
For KKKYVIKVYFEDTGKEVEIEAESKEEALEASKRLAEELGLKIKKVEIYP [A31S], the “folding stability dG” value was 4.2 kcal/mol.
On to KKKYVIKVYFEDTGKEVEIEAESKEEALEANKRLAEELGLKIKKVEIYP [A31N], for which the “folding stability dG” value is 1.73 kcal/mol.
As for KKKYVIKVYFEDTGKEVEIEAESKEEALEAEKRLAEELGLKIKKVEIYP [A31E], the “folding stability dG” value came to 2.11 kcal/mol.
The result for KKKYVIKVYFEDTGKEVEIEAESKEEALEAYKRLAEELGLKIKKVEIYP [A31Y] reads 4.33 kcal/mol; that for KKKYVIKVYFEDTGKEVEIEAESKEEALEAAKRLAEELGLKIFKVEIYP [K43F], 4.53 kcal/mol; that for KKKYVWKVYFEDTGKEVEIEAESKEEALEAAKRLAEELGLKIKKVEIYP [I6W], 4.67 kcal/mol.
Regarding KKKYVVKVYFEDTGKEVEIEAESKEEALEAAKRLAEELGLKIKKVEIYP [I6V], the “folding stability dG” value is 4.06 kcal/mol.
The result for KKKYNIKVYFEDTGKEVEIEAESKEEALEAAKRLAEELGLKIKKVEIYP [V5N] reads 4.12 kcal/mol; that for KKKYAIKVYFEDTGKEVEIEAESKEEALEAAKRLAEELGLKIKKVEIYP [V5A], 4.35 kcal/mol.
For KKKYWIKVYFEDTGKEVEIEAESKEEALEAAKRLAEELGLKIKKVEIYP [V5W], the “folding stability dG” value amounted to 4.62 kcal/mol.
For KKKYKIKVYFEDTGKEVEIEAESKEEALEAAKRLAEELGLKIKKVEIYP [V5K] the value was 4.63 kcal/mol.
With KKKYVIKVYFEDTGKEVEIEALSKEEALEAAKRLAEELGLKIKKVEIYP [E22L], the “folding stability dG” value is 4.26 kcal/mol.
The result for KKKYVIKVYFEDTGKEVEIEAYSKEEALEAAKRLAEELGLKIKKVEIYP [E22Y] reads 4.52 kcal/mol; that for KKKYVIKVYFEDTGKEVEIEACSKEEALEAAKRLAEELGLKIKKVEIYP [E22C], 4.52 kcal/mol.
The result for KKKYVIKVYFEDTGKEVEIEMESKEEALEAAKRLAEELGLKIKKVEIYP [A21M] reads 4.26 kcal/mol; that for KKKYVIKVYFEDTGKEVEIEFESKEEALEAAKRLAEELGLKIKKVEIYP [A21F], 4.23 kcal/mol.
For KKKYVIKVYPEDTGKEVEIEAESKEEALEAAKRLAEELGLKIKKVEIYP [F10P] the value was 2.07 kcal/mol; for KKKYVIKVYLEDTGKEVEIEAESKEEALEAAKRLAEELGLKIKKVEIYP [F10L], 3.94 kcal/mol; for KKKYVIKVYGEDTGKEVEIEAESKEEALEAAKRLAEELGLKIKKVEIYP [F10G], 3.16 kcal/mol.
KKKYVIKVYKEDTGKEVEIEAESKEEALEAAKRLAEELGLKIKKVEIYP [F10K]: the “folding stability dG” value worked out at 1.65 kcal/mol.
Take KKKYVIKVYFEDTGKEVEQEAESKEEALEAAKRLAEELGLKIKKVEIYP [I19Q]: the “folding stability dG” value was 3.59 kcal/mol.
For KKKYVIKVYFEDTGKEVEHEAESKEEALEAAKRLAEELGLKIKKVEIYP [I19H] the value was 3.61 kcal/mol; for KKKYVIKVYFEDTGKEVEIEAESKEEALETAKRLAEELGLKIKKVEIYP [A30T], 4.38 kcal/mol; for KKKYVIKVYFEDTGKEVEIEAESKEEALEAAKRLAEELGLKIKKVGIYP [E46G], 3.71 kcal/mol.
For KKKYVIKVYFEDTGKEVEIEAESKEEALEAAKRLAEELGLKIKKVRIYP [E46R] the value was 4.16 kcal/mol; for KKKYVIKVYFEDTGKEVEIEAESKEEALEAAKRLMEELGLKIKKVEIYP [A35M], 3.97 kcal/mol; for KKKYVIKVYFEDTGKEVEIEAESKEEALEAAKRLNEELGLKIKKVEIYP [A35N], 3.14 kcal/mol.
For KKKYVIKVYFEDTGKEVEIEAESKEEALEAAKPLAEELGLKIKKVEIYP [R33P] the value was 2.02 kcal/mol; for KKKYVIKVYFEDTGKEVEIEAESKEEALEAAKNLAEELGLKIKKVEIYP [R33N], 4.22 kcal/mol; for KKKYVIKVYFEDTGKEVEIEAESKEEALEAAKMLAEELGLKIKKVEIYP [R33M], 4.32 kcal/mol.
With KKKYVIKVYFEDTGKEVEIEAESKEEALEAAKRLAEELGLKIKKVEIYL [P49L], the “folding stability dG” value was 4.62 kcal/mol.
The result for KKKYVIKVYFEDTGKEVEIEAESKEEALEAAKRLAEELGLKIKKVEIYV [P49V] reads 4.45 kcal/mol; that for KKKYVIKVYFEDTGKEVEIEAESKEEALEAAKRLAEELGLKIKKPEIYP [V45P], 2.52 kcal/mol.
